From US20090215120A1 (UNIVERSITY OF MEDICINE AND DENTISTRY OF NEW JERSEY, published 2009)

Assays:
[1] = molecular target: T1, EnvZc, the cytoplasmic domain of EnvZ (histidine kinase of E. coli) (E. coli, UniProt P0AEJ4 180-450); assay: 10% native PAGE, 4 uM of each protein, 5 min at room temperature
T1 construct: domain: cytoplasmic domain of EnvZ; Purified EnvZc
T1 sequence: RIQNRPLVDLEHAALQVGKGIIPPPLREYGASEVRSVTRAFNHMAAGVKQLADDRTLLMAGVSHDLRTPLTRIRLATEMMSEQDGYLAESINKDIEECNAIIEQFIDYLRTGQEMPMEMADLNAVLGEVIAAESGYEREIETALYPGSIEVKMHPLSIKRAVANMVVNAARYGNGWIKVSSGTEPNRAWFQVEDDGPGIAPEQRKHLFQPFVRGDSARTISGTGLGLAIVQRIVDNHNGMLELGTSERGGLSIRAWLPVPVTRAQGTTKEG

[2] = molecular target: PrS2-OmpR (OmpR fused to two tandem repeats of the N-terminal domain, residues 1-92, of protein S of Myxococcus xanthus), P02966
[3] = molecular target: T2, OmpR, transcription factor (response regulator) of E. coli, P0AA16
T2 chain: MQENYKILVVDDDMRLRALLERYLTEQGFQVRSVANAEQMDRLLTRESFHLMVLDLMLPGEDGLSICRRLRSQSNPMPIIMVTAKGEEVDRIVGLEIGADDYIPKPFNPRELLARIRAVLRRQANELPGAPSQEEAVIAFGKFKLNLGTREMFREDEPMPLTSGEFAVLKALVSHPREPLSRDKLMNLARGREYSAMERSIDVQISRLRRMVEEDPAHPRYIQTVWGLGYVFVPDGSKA

[4] = molecular target: phosphorylated PrS2-OmpR (PrS2-OmpR-P)
[5] = molecular target: T3, phosphorylated OmpR (OmpR-P), P0AA16
T3 chain: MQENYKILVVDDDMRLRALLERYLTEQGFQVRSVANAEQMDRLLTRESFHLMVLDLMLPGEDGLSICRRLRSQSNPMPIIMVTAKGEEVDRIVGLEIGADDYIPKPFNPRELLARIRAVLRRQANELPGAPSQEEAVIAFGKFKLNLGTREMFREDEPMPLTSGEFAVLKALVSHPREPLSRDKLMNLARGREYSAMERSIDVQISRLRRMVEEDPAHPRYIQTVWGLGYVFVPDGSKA

Sequence of PrS2-OmpR (OmpR fused to two tandem repeats of the N-terminal domain, residues 1-92, of protein S of Myxococcus xanthus), P02966 (P02966 whole entry, looked up, the tested form may be a part): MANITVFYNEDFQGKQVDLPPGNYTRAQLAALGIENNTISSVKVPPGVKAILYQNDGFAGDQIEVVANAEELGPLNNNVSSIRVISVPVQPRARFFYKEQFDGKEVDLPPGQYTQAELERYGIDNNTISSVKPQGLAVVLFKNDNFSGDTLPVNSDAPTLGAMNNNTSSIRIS

B1: OmpR, transcription factor (response regulator) of E. coli (other)
chain: MQENYKILVVDDDMRLRALLERYLTEQGFQVRSVANAEQMDRLLTRESFHLMVLDLMLPGEDGLSICRRLRSQSNPMPIIMVTAKGEEVDRIVGLEIGADDYIPKPFNPRELLARIRAVLRRQANELPGAPSQEEAVIAFGKFKLNLGTREMFREDEPMPLTSGEFAVLKALVSHPREPLSRDKLMNLARGREYSAMERSIDVQISRLRRMVEEDPAHPRYIQTVWGLGYVFVPDGSKA
notes: Purified wild-type OmpR; also called wild-type OmpR; non-tagged OmpR
binding result [1]: binds

B2: phosphorylated EnvZc (EnvZc-P), 32P-labelled (protein)
chain: RIQNRPLVDLEHAALQVGKGIIPPPLREYGASEVRSVTRAFNHMAAGVKQLADDRTLLMAGVSHDLRTPLTRIRLATEMMSEQDGYLAESINKDIEECNAIIEQFIDYLRTGQEMPMEMADLNAVLGEVIAAESGYEREIETALYPGSIEVKMHPLSIKRAVANMVVNAARYGNGWIKVSSGTEPNRAWFQVEDDGPGIAPEQRKHLFQPFVRGDSARTISGTGLGLAIVQRIVDNHNGMLELGTSERGGLSIRAWLPVPVTRAQGTTKEG
phosphotransfer from 32P-labelled EnvZc-P to PrS2-OmpR (SDS-PAGE, autoradiography) [2]: EnvZc-P was able to phosphorylate PrS2-OmpR and the result was almost identical to the non-tagged OmpR
phosphotransfer from 32P-labelled EnvZc-P to OmpR (SDS-PAGE, autoradiography) [3]: the phosphoryl group on EnvZ was instantly transferred to OmpR and this reaction was completed in 120 sec

B3: EnvZc, the cytoplasmic domain of EnvZ (histidine kinase of E. coli) (protein)
chain: RIQNRPLVDLEHAALQVGKGIIPPPLREYGASEVRSVTRAFNHMAAGVKQLADDRTLLMAGVSHDLRTPLTRIRLATEMMSEQDGYLAESINKDIEECNAIIEQFIDYLRTGQEMPMEMADLNAVLGEVIAAESGYEREIETALYPGSIEVKMHPLSIKRAVANMVVNAARYGNGWIKVSSGTEPNRAWFQVEDDGPGIAPEQRKHLFQPFVRGDSARTISGTGLGLAIVQRIVDNHNGMLELGTSERGGLSIRAWLPVPVTRAQGTTKEG
dephosphorylation of PrS2-OmpR-P by EnvZc upon addition of ADP (SDS-PAGE, autoradiography) [4]: Although in case of PrS2-OmpR, this reaction was slowed by PrS2 tag, phosphorylated PTS2-OmpR was dephosphorylated by EnvZc
dephosphorylation of OmpR-P by EnvZc upon addition of ADP (SDS-PAGE, autoradiography) [5]: OmpR-P was quickly dephosphorylated and Pi was released
